Results reported in paper doi:10.1101/2022.05.24.493321.
Like-named read-outs stand apart in the source and are kept apart here.

Experiments:
Pho4 [1] = target: T1, Pho4 (S. cerevisiae, UniProt P07270 1-312); test: STAMMP
T1 sequence: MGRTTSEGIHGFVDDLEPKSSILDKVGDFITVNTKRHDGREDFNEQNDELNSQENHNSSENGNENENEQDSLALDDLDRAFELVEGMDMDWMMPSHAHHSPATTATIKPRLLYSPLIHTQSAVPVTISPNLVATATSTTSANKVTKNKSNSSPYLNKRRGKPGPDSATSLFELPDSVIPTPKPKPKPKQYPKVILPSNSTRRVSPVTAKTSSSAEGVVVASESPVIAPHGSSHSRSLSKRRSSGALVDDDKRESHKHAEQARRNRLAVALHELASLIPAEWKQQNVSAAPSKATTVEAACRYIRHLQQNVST

Pho4 [2] = target: T1, Pho4; test: MITOMI
MAX [3] = target: T2, MAX (Homo sapiens, UniProt P61244 1-160); test: MITOMI
MAX [4] = target: T2, MAX; test: MITOMI; remark: listed apart in the source

T2 sequence (P61244 whole entry): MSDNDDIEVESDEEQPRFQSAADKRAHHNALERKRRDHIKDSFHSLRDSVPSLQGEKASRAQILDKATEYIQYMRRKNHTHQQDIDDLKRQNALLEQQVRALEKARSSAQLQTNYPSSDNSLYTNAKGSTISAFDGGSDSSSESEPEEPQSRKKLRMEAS

B1: Motif + random 1 (dsDNA)
DNA 1: CGCACAGTCACTTAACGTCACGTGACCGGGGTATTTCAGGTCCGGCGGTATGAC
DNA 2: GTCATACCGCCGGACCTGAAATACCCCGGTCACGTGACGTTAAGTGACTGTGCG
- binding result (Pho4 [1]): binds

B2: ATGC/ATGC 60bp (dsDNA)
DNA 1: CGCATGCATGCATGCATGCATGCATGCATGCATGCATGCATGCATGCATGCATGCATGCATGCGTCACGTGACGCATGCATGCATGCATGCATGCATGCATGCATGCATGCATGCATGCATGCATGCATGCATCGTCCGGCGGTATGAC
DNA 2: GTCATACCGCCGGACGATGCATGCATGCATGCATGCATGCATGCATGCATGCATGCATGCATGCATGCATGCATGCGTCACGTGACGCATGCATGCATGCATGCATGCATGCATGCATGCATGCATGCATGCATGCATGCATGCATGCG
- binding result (Pho4 [2]): binds
- binding result (MAX [3]): binds

B3: GT/AC 15bp (dsDNA)
DNA 1: CGCCCCAGCACTGCCAAGCCGACGTTAAAACGGGTTGCTTCATCAATCTGTGTGTGTGTGTGTGTCACGTGACACACACACACACACATATCGGCACTTGCGCTTGAGTGCATCGAATAGTTCGGTTTATGAGCGTCCGGCGGTATGAC
DNA 2: GTCATACCGCCGGACGCTCATAAACCGAACTATTCGATGCACTCAAGCGCAAGTGCCGATATGTGTGTGTGTGTGTGTCACGTGACACACACACACACACAGATTGATGAAGCAACCCGTTTTAACGTCGGCTTGGCAGTGCTGGGGCG
- binding result (MAX [4]): binds
